Experiments:
Bax = Bax (Homo sapiens, UniProt Q07812); assay: Suppression of apoptosis induced by Bax over-expression (Humanin mutants); type: cell-based; set-up: expressed in transfected cells; host or cells: HEK293T; settings: GFP-fusion polypeptides, 3:1 ratio of HN:Bax plasmid DNA
Experimental: Apoptosis assays were performed as follows. Both floating and adherent cells (after trypsinization) were collected 48 hr after transfection, fixed, and stained using 4′,6-diamidine-2′-phenylindole dihydrochloride (DAPI) for assessing apoptosis based on nuclear fragmentation and chromatin condensation (Fields and Song, supra (1989)).
In order to explore whether a correlation exists between Humanin binding to Bax and Humanin-mediated suppression of apoptosis, Bax was co-expressed with various GFP-fusion polypeptides encoding wild-type, full-length Humanin or various truncation and site-specific mutants of Humanin (Table 1). Expression of all GFP-fusion polypeptides was confirmed by immunoblotting, and ability to bind Bax was determined by co-immunoprecipitation assay. Each Humanin mutant was scored for ability to suppress apoptosis induced by Bax over-expression by >50% using a 3:1 ratio of HN:Bax plasmid DNA. […] Based on these studies, an active region of the 24 amino-acid Humanin peptide, mapped to residues 7-17.
Cell culture and transfections were performed as follows. CSM14.1, HCT116, Cos-7, and SF268 cells were cultured in DMEM high glucose media (Irvine Scientific, Santa Ana, Calif.) containing 10% fetal bovine serum (FBS). PC-3 cells were cultured with RPMI 1640 media containing 10% FBS. Transfection of cells was performed using SuperFect (Qiagen, Chatsworth, Calif.) or LipofectaminePLUS reagent ([…]).

BaxΔTM = molecular target: T1, BaxΔTM (Homo sapiens, UniProt Q07812); assay: Co-immunoprecipitation of BaxΔTM with GFP-TM(Bax); type: binding; settings: lysates pre-incubated with peptide
T1 construct: a C-terminally truncated Bax protein (residues 1-169) (BaxΔTM); expressed in transfected cells; host or cells: HEK293T (lysates mixed in vitro)
T1 sequence (Q07812 1-169, stated change not applied): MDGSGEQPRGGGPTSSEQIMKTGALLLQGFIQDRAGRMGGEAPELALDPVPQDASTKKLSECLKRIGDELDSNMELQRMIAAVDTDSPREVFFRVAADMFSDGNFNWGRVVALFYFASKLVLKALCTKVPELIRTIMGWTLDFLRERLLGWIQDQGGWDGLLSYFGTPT
T1 sequence (Q07812 170-192 partner limits assumed): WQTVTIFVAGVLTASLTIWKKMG
Experimental: (A-B) Humanin peptide prevents STS-induced Bax translocation in vivo. Cos-7 cells were first transfected with GFP-Bax plasmids. After 24 hrs, untagged wild-type or C8P mutant Humanin peptides were introduced into cells using ChariotTM reagent, and 2 h later cells were treated with 1 μM STS. After 4 h, the percentage of cells with translocated Bax was determined (mean±SD; n=3) by confocal microscopy (A) and representative photomicrographs (B). (C) Wild-type or C8P mutant Humanin peptides were introduced into Cos7 cells using ChariotTM reagent. Cytosolic (C) and mitochondria-containing (M) fractions were isolated by differential centrifugation 23 and analyzed by immunoblotting using anti-Bax (top), Hsp60 (middle) (mitochondrial marker), or Tubulin (bottom) (cytosol marker) antibodies. (D) HN or mutant control double-strand siRNAs were transfected into SF268 cells. After 48 h, cells were cultured without (Control) or with 0.1 uM STS. After 24 hr, cells were fractionated and analyzed by immunoblotting as above. (E) Isolated mitochondria were mixed with 400 ng Bax protein, with or without preincubating Bax with 100 uM Humanin or Humanin(C8P) peptides for 10 min. After 3 h at 30° C., mitochondria were centrifuged and the resulting pellets (P) and supernatants (S) were analyzed by immunoblotting using anti-Cytochrome c (top), Hsp60 (middle), and Bax (bottom) antibodies. […]

Chain of Bax (Q07812 whole entry, species assumed, the tested form may be a part): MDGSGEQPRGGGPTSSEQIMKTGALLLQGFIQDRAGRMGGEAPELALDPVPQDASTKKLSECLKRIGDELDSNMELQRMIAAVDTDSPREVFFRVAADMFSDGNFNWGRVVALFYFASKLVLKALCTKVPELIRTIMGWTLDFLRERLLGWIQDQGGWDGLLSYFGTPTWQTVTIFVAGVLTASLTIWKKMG

Substance | Bax suppression (Bax) | interaction of BaxΔTM with GFP-TM (BaxΔTM)
GFP-HN: Wild-type full-length Humanin fused to Green Fluorescent Protein | + (ability to suppress apoptosis induced by Bax over-expression by >50%) | 
Humanin: 24 amino acid polypeptide, cytosolic form of human Humanin (SEQ ID NO:2); used as synthetic peptide or expressed fusion |  | immunoprecipitated
